How the values were obtained:
[1] = test system: gliadin 33mer LQLQPFPQPQLPYPQPQLPYPQPQLPYPQPQPF
[2] = target: gliadin 33mer …; test: cell-based or functional assay
[3] = target: Ala-proNPY
[4] = target: T1, gliadin 14mer PQPQLPYPQPQLPY
T1 chain: PQPQLPYPQPQLPY

[5] = target: T2, gliadin 33mer LQLQPFPQPQLPYPQPQLPYPQPQLPYPQPQPF
T2 chain: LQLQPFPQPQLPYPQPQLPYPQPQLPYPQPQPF

[6] = target: Gly-Ser-proNPY

## Chymotrypsin
[1]
  digestion of the peptide: Chymotrypsin alone or supplemented with ruLAP or DPPIV is not able to breakdown the peptide

## Pronase
[2]
  digestion of the peptide over 20 h, E/S=1/25: < 40%

B1: recombinant ruLAP2 produced in P. pastoris (protein)
chain: RLVGQEPFGWPFKPMVTQDDLQNKIKLKDIMAGVEKLQSFSDAHPEKNRVFGGNGHKDTVEWIYNEIKATGYYDVKKQEQVHLWSHAEAALNANGKDLKASAMSYSPPASKIMAELVVAKNNGCNATDYPANTQGKIVLVERGVCSFGEKSAQAGDAKAAGAIVYNNVPGSLAGTLGGLDKRHVPTAGLSQEDGKNLATLVASGKIDVTMNVISLFENRTTWNVIAETKGGDHNNVIMLGAHSDSVDAGPGINDNGSGSIGIMTVAKALTNFKLNNAVRFAWWTAEEFGLLGSTFYVNSLDDRELHKVKLYLNFDMIGSPNFANQIYDGDGSAYNMTGPAGSAEIEYLFEKFFDDQGIPHQPTAFTGRSDYSAFIKRNVPAGGLFTGAEVVKTPEQVKLFGGEAGVAYDKNYHRKGDTVANINKGAIFLNTRAIAYAIAEYARSLKGFPTRPKTGKRDVNPQYSKMPGGGCGHHTVFM
[3]
  removal of the N-terminal residue; mass loss by ESI-MS: the N-terminal alanine was almost totally removed (molecular mass loss of 71 amu) from proNPY
[4]
  digestion of the peptide, 37 C, 4 h, RP-HPLC and ESI-MS: the 14mer is not digested with ruLAP2 within 4 h
[5]
  degradation of the peptide within 4 h, RP-HPLC: partial degradation (less than 50%) of the peptide within 4 h
[6]
  removal of N-terminal residues; mass loss by ESI-MS: cleavage of the two N-terminal residues Gly-Ser with a theoretical loss of 144.1 amu (found 144.2)

B2: microsomal leucine aminopeptidase from porcine kidney (Sigma) (protein)
chain: KPWNRYRLPTTLLPDSYNVTLRPYLTPNADGLYIFKGKSIVRLLCQEPTDVIIIHSKKLNYTTQGHMVVLRGVGDSQVPEIDRTELVELTEYLVVHLKGSLQPGHMYEMESEFQGELADDLAGFYRSEYMEGNVKKVLATTQMQSTDARKSFPCFDEPAMKATFNITLIHPNNLTALSNMPPKGSSTPLAEDPNWSVTEFETTPVMSTYLLAYIVSEFQSVNETAQNGVLIRIWARPNAIAEGHGMYALNVTGPILNFFANHYNTSYPLPKSDQIALPDFNAGAMENWGLVTYRENALLFDPQSSSISNKERVVTVIAHELAHQWFGNLVTLAWWNDLWLNEGFASYVEYLGADHAEPTWNLKDLIVPGDVYRVMAVDALASSHPLTTPAEEVNTPAQISEMFDSISYSKGASVIRMLSNFLTEDLFKEGLASYLHAFAYQNTTYLDLWEHLQKAVDAQTSIRLPDTVRAIMDRWTLQMGFPVITVDTKTGNISQKHFLLDSESNVTRSSAFDYLWIVPISSIKNGVMQDHYWLRDVSQAQNDLFKTASDDWVLLNVNVTGYFQVNYDEDNWRMIQHQLQTNLSVIPVINRAQVIYDSFNLATAHMVPVTLALDNTLFLNGEKEYMPWQAALSSLSYFSLMFDRSEVYGPMKKYLRKQVEPLFQHFETLTKNWTERPENLMDQYSEINAISTACSNGLPQCENLAKTLFDQWMSDPENNPIHPNLRSTIYCNAIAQGGQDQWDFAWGQLQQAQLVNEADKLRSALACSNEVWLLNRYLGYTLNPDLIRKQDATSTINSIASNVIGQPLAWDFVQSNWKKLFQDYGGGSFSFSNLIQGVTRRFSSEFELQQLEQFKKNNMDVGFGSGTRALEQALEKTKANIKWVKENKEVVLNWFIEHS
[5]
  digestion of the peptide, RP-HPLC and ESI-MS: results only in a partial deletion of N-terminal Leu and C-terminal Phe (due to a carboxypeptidasic contaminant)

B3: cytosolic leucine aminopeptidase from porcine kidney (Sigma) (protein)
chain: TKGLVLGIYSKEKEDDAPQFTSAGENFDKLVSGKLREILNISGPPLKAGKTRTFYGLHEDFSSVVVVGLGKKGAGVDDQENWHEGKENIRAAVAAGCRQIQDLEIPSVEVDPCGDAQAAAEGAVLGLYEYDELKQKKKVVVSAKLHGSGDQEAWQRGVLFASGQNLARHLMETPANEMTPTRFAEVIEKNLKSASSKTDVHIRPKSWIEEQEMGSFLSVAKGSEEPPVFLEIHYKGSPDASDPPLVFVGKGITFDSGGISIKASANMDLMRADMGGAATICSTIVSAAKLDLPINLVGLAPLCENMPSGKANKPGDVVRAKNGKTIQVDNTDAEGRLILADALCYAHTFNPKVIINAATLTGAMDIALGSGATGVFTNSSWLWNKLFEASIETGDRVWRMPLFEHYTKQIVDCQLADVNNIGKYRSAGACTAAAFLKEFVTHPKWAHLDIAGVMTNKDEVPYLRKGMAGRPTRTLIEFLLRFSQDSA
[5]
  digestion of the peptide, RP-HPLC: totally inactive towards the 33mer

Reference: patent publication US20050158298A1
